A short description of the data set: soluble on expression in E. coli; label from the status in PepcDB or PDB records.
Take “MGSDKIHHHHHHMNTDARMGAGVSLKAEHYDQALACNLEGLWFEVHPENYMVGGPRLAWLNRIAERHPVSLHGVALSLAADAAPDQDHLQRLRALCDQIEPVLVYYHLAWSTWQGHYHPDLLPFPRSNEALQRIAENIQRCQEVLGRRISIENPSHYLQLQGHEWDEIDFLGELTRRTGCGLLLDINNVYVSAHNLGFSATAYLDRFPAQAITEVHLAGHSDDDQGSLLIDSHDAQVAEPVWALYRKLVSRVGPRPTLIERDDKLPPFTELLAERSIAQSIMTCPGVLP”: the “soluble on expression in E. coli” value is on record as “not soluble”.

Consider “MVNAIRTPDQRFSNLDQYPFSPNYLDDLPGYPGLRAHYLDEGNSDAEDVFLCLHGEPTWSYLYRKMIPVFAESGARVIAPDFFGFGKSDKPVDEEDYTFEFHRNFLLALIERLDLRNITLVVQDWGGFLGLTLPMADPSRFKRLIIMNACLMTDPVTQPAFSAFVTQPADGFTAYKYDLVTPSDLRLDQFMKRWAPTLTEAEASAYAAPFPDTSYQAGVRKFPKMVAQRDQACIDISTEAISFWQNDWNGQTFMAIGMKDKLLGPDVMYPMKALINGCPEPLEIADAGHFVQEFGEQVAREALKHFAETE”, for which the “soluble on expression in E. coli” value is reported as “soluble”.

In the case of “MSLKKTEKAYEVKRAFNNNIVLVDDDEKEIILFAKGIGFNCKKGSIIPENTNIEKIFTIQDENNIANFRRVVGSNDEKFIAFCEELILEISRDFSEELNEIIHIGLIDHISFAIERMKKGEILRNPFLVEIETLYPKEFEAATKMVKKLEDFTGVSIVDDEIGFIAMHIHSARTTGKISHTIKFTYIANTAVEYIEDAFNIEVDRTSLSYARFISHLRFAIERLINNTPVKNELLSIIKLKYPESFKVAEEIGKAINEDFSLEVAEDEIGYLALHVERIRKNEGHHHHHH”, the “soluble on expression in E. coli” value is recorded as “soluble”.

As for “MNDLKSKSNIKLMKRVLTTYELRKYLKKYFCLTLDNYLVLAYLDVFKNDEGKYFMRDIISYIGIDQSRIVKSVKDLSKKGYLNKCRDPHDSRNVIIVVSVKQHNYIKNLLSEININET”, the “soluble on expression in E. coli” value is “not soluble”.

With “MAHHHHHHMIVDSAVTERVVLQQQQELDAAERRCAAAEQRLEVELQKTFWRFLTTSAPDAVAAANRKQQSLGWANGGDGAGADSSLYRAEVDVSRFAEVRKAASPNPHRCNTAVAPFSPVRLVPVRTIKLSNEVGDASAAAAASRTQSPSKRSQDSALQPIVLDISPVSALSRCLGCCSGTQLGAIASSVSSAAEEHLLRLAHTRHSVLLFIGSESAAMDVMQSCKAPELLLGAGHSCRDRFQPLANHPVLRVLFTTRLWGANVVLLWNPAQDAALAVAAQAVVEDALELAYAWDADMFSVAVLEGARLPSYAGAGGVSAVATGASSTSAAFFASQAVSMEVLRQLRNSVTRELLDTAGMRRARRWQGTATWMQQGIGSAAAATTGTHMCPRAVGVLYVSQSAQQEQENQLQHQEVSCTASSIRSNAASPLRGDNSIVSVMSSSFLFSPTSPASAFRGPCITFNTPLAIRAFLPLAEEYFIREQPSLVRGSSRGGGDGHHGVSEAASSSTLNQEGGGARGLLRRTASATATEDDDASFSSEKDARFSPASLSATSAPASSPAIDAIRASGSGGEAGLRRQPEMTLESLIQYAFGDLAEIL”, the “soluble on expression in E. coli” value is recorded as “not soluble”.

For “IKKEPEKPIDREKTCPLLLRVFTTNNGRHHRMDEFSRGNVPSSELQIYTWMDATLKELTSLVKEVYPEARKKGTHFNFAIVFTDVKRPGYRVKEIGSTMSGRKGTDDSMTLQSQKFQIGDYLDIAITPPNRAPPTSGRMRPY”, the “soluble on expression in E. coli” value is “not soluble”.

As to “MLETEHANTEVHELCRQMIARIEKYGTLEGFSDSDILEVLKTIKEILEPLPCLIEIIAPVVVFGDIHGQLGDLLQFTNEVGRPPDFQYLFLGDYVDRGPNSLEVTVWLFCMKILFSKKVHLLRGNHEVRRVNTMYGFKEEMMRKRNSHLWKVFNDVFAELSICASINRKILCMHGGISPKIESWDSLTGMTKPRVHGDCEHGLIVDLIWSDPNRKDDTIQFNKMRGISTLFGKSVVDNLCTTLAIDLIIRAHEMKEVYVFHLYLSSMKGHTFEFDNRLLTVFSAPYYSGHNSNLGSVATISKSLKLRIVTLKPNKGYDRSKLDKRTLHDFEKNFQPLDENPRKNISCQFNVPPNGQKMSPFLGEYSMFAHETQFCKKDNETPVKKPYSSNQDEDHSVLDMIRKTQKGYGVEVSLKDKVMSLESIRKKLGMTTSTTPPPPRTPSPDAPLAQSPPIPRSPPSSTENA”, the “soluble on expression in E. coli” value is given as “not soluble”.

With “MTEFTLAHLSDPHLPLPPKTSLRHLASKRALGYLNWRRNRHLIHRRDILDTLVADLQAQQPDHIAVTGDLVNIALVNEFAPARQWLESVGPADRVSLVPGNHDAYVRSTAHRFAETFPDYISGDDATPGFPYLRRREAIAIIGVSSAVPTAPLRATGWLGAPQRAALEALLQSLAGERVFKVLLIHHPLQSRSRHKRLTDAADLIALLQRHPVDLVLHGHDHVHATVRIDTPFGAIPVVGVPSASAMNDRHRPSAAYNLFKISEGNDGWRCLEHHHHHH”, the “soluble on expression in E. coli” value is listed as “not soluble”.

For “MGSSHHHHHHSQDPPAVHKLTKRIPLRRQVTVSAESSSSMNSNTPLVRITTRLSSTADTPMLAGVSEYELPEDPKWEFPRDKLTLGKPLGEGCFGQVVMAEAVGIDKDKPKEAVTVAVKMLKDDATEKDLSDLVSEMEMMKMIGKHKNIINLLGACTQDGPLYVIVEYASKGNLREYLRARRPPGMEYSYDINRVPEEQMTFKDLVSCTYQLARGMEYLASQKCIHRDLAARNVLVTENNVMKIADFGLARDINNIDYYKKTTNGRLPVKWMAPEALFDRVYTHQSDVWSFGVLMWEIFTLGGSPYPGIPVEELFKLLKEGHRMDKPANCTNELYMMMRDCWHAVPSQRPTFKQLVEDLDRILTLTTNEE”, the “soluble on expression in E. coli” value is listed as “soluble”.

Consider “MGSDKIHHHHHHMSSEMNGTAPFQDQGATDVSLLEDIVRVTKLQPADEAYSITRRGVAALMAQLLEPGAEARKVSKAVLDDMIAEIDRKLSLQMDEILHHPQFQALESSWRSLHFLVDRTDFRENNRIEFLNATKEELLDDFEDAPEVAKSGLYKTVYSAEYGQFGGKPFGAIIGNYDFGPGAQDIKLLQSLAAVAGMAHAPFMAAASPQFFGCDDFTALPNLKDISSILEGPQYAKWQAFRESEDARYVGLALPRFLLRLPYGEATRPAKCFNYEEQVSDSHDRYCWGNAAFAFATRLTESFANFRWCANIIGPQGGGTVHDLPLHQYQAMGAIQTKIPTEVLISERREFELAEGGFIALTMRKGSDNAAFFSANSVQKPKFFGSSKEGKEAELNYKLGLQLPYMFIVSRLAHYLKVIQREHIGTWKERGDLENELNLWIRQYVSEMDNPMPGVRSRRPLRQAEVTVEEVPGEPGWYRVGLKVTPHFKYMGAYFTLSLVGKLDKE”, for which the “soluble on expression in E. coli” value is given as “not soluble”.

On to “MNQWRVIHNKSYEGAMNMAIDEAIFTAYKKGHNKPTLRFYTWEPACLSIGYFQKLEDEIDLDKCRCMNIDYTRRITGGRAVLHDNELTYSIIIGEDNPLIDKSINLSYRYISEGLVKGLNLSGIETDNLNRGERISRENLSAACFNAHASYEVTINNKKVIGSAQSRKDGVLLQHGSIILDFDVEKLFKLIKTKTPELKERAMKFTAKKASGIENEIGRKIDIDILQKNIVKGLAEQFNVEFVEGDLTDYEKQLVKELYEKYKNEEYN”, for which the “soluble on expression in E. coli” value is listed as “not soluble”.

Take “MFNLQKRINGNNEDGRYLETRIAVRDKLLAQELQQLETALRDQKQKLWHLEVPSTSCLHELELTVTPQEGIYRGGKFRFKITVPPEYNNVPPVVKCLTKVWHPNINEDGSICLSILRQNSLDQYGWRPTRNLTDVVHGLVSLFNDLMDFNDALNIQAAQMWSQNRESFNHRVREYISRYC”: the “soluble on expression in E. coli” value is listed as “soluble”.

In the case of “MGASRMTEIIDISLDITEDTVVMPENPEFDKERLASIGKEGYELYKICMSNHIGTHIDAPAHFVSEGALINQLDLDTLMGKALVVEIKDEHKISVDELKRVNLKDNIRLLFKTRNSELIAENKLTKDFVYIEEQAAGHLVKNGVKLIGLDYFTIDRIEDQDKPAHKEFAGNGVVVIEGVNLLNVEPGEYELVALPIKINADGAPARVILRRLEHHHHHH”, the “soluble on expression in E. coli” value is “soluble”.

As to “LLPGAPDCRVYGWIYSSPTPGRAWVLLVHGLGGDHTFFEEPLGGYRVAYDLALRGFKVLAIDAAGHGESCIPGGESWRDKALTLEPGEFFLYHVYLSGVRAVEAALELGAEPG”, the “soluble on expression in E. coli” value is “not soluble”.

On to “MTELQHPVLVVDDETDILDLMEMTLMKMGLRVHTASGVAEAKNKLDSQRYSLVLTDMRMPDGSGLEVVQHINSRLLDTPVAVITAFGNADQAQEALRCGAFDPDTMQIQDYLDQIERDIIEQTLKQTEGNRTQAAKRLGISFRSMRYRMERLNIG”, for which the “soluble on expression in E. coli” value is reported as “not soluble”.

In the case of “MLEGAKFNVLAVGNHHNNDNNYYAFTQEFYQKLNEGSNMSMESMQTSNAGGSVSMSVDNSSVGSSDALIGHPGLKPVRHYSLSVGQSVFRPGRVTHALNDDALAQALMDTRYPTEGLTNYDEWTIDLRKLNMGPAFAQGAFGKLYKGTYNGEDVAIKILERPENSPEKAQFMEQQFQQEVSMLANLKHPNIVRFIGACRKPMVWCIVTEYAKGGSVRQFLTRRQNRAVPLKLAVKQALDVARGMAYVHGRNFIHRDLKSDNLLISADKSIKIADFGVARIEVQTEGMTPETGTYRWMAPEMIQHRAYNQKVDVYSFGIVLWELITGLLPFQNMTAVQAAFAVVNRGVRPTVPNDCLPVLSDIMTRCWDANPEVRPCFVEVVKLLEAAETEIMTTARKARFRCCLSQPMTID”, the “soluble on expression in E. coli” value is “not soluble”.

“DEAMLKIEQQEVVKNLPVGSKLVQLKYAGHSTDEPLLNQIYKEFEVTANILYGNIEILDGIPVGEMVVILSGDEEKLRQACQAITDSQVQLTLLKEGG”: the “soluble on expression in E. coli” value was “not soluble”.

“MIRITQIKISIDEPVSKVKSLVLKKLRLQESDLLDYRIYKESIDARHRGEIDFIYTVDIKLKDEARILSKKIKNVSLAPELDYVNPVIGSKKMLHRPVVIGFGPAGMFAALLLAQNGYRPIVLERGQAVDERVKSIDKFWLEGKLNPKSNVQFGEGGAGTFSDGKLTSRVRDLRGRKVLEEFVQAGAPEDILYKAHPHVGTDLLRDIVKNIRKQIIELGGEVHFDAQVEEFLIEDEELQAVKLADGNIIKTNQAILAIGHSARDTFSELYDKGVTITAKPFAVGVRIEHPQSLINKAQYKEFADHPRLGAAEYRLTYKASSGRGVYTFCMCPGGLVVPAASEEGGLVTNGMSEHARDQKNANSGLLVQVFPEDFPTDHPLAGVEFQKELEHKAFELGGSNYQAPAQLVGDFLDGKASKAMGTVEPSYALGVKPTNLESLFPDYVTQSMREAIVGLDKKMHGFALSDAVMTGVESRSSSPVRINRDEENYQSVSTKGIYPSGEGAGFAGGIVSAGIDGLKCAESMIAEFAKLLMEDLEHHHHHH”: the “soluble on expression in E. coli” value is “soluble”.

For “MGSDKIHHHHHHMRCPWRKTRRHSDNGWYGPRNQIRPDDHRLHRKVRKSRGDSRRAGNGSPRARCFEGAQRRGKSDGLSECGRMKNLLEMVELVRGKRMKIAVGAAEDEEVLKAVARAKEEEIVDPVLFGKRKDIETLVERMNLELEAEIVHVEDPFEAVRKAVESVSRNETQILMKGKIKTSDLFSVFLKKEYGLRTGRTLSAVSVHEVPGYHKILIISDGGLVISPNLQQRMDIVENSILVARALGIEKPKIALLGTGDLKSPLTLEIAALSKIFQQRNDCIVDGPLTLDLAISEELASKAGNSPVAGDADILIVPSIETGNILSKSLVYMARGRAAIVVVGGRVPVVLTSRADDEETRFLSIALSVLVAQKKG”, the “soluble on expression in E. coli” value was “not soluble”.

For “MDKVLDSALLSSANKRKGILAIGAHPDDIELGCGASLARLAQKGIYIAAVVMTTGNSGTDGIIDRHEESRNALKILGCHQTIHLNFADTRAHLQLNDMISALEDIIKNQIPSDVEIMRVYTMHDADRHQDHLAVYQASMVACRTIPQILGYETPSTWLSFMPQVFESVKEEYFTVKLAALKKHKS”, the “soluble on expression in E. coli” value is on record as “soluble”.
